One experiment deals with SK-MEL-5. Put plainly: Cell viability tests (survival rate), previous experiment. The format is cell-based. The following applies: rounded values. The source says: (§1) ER stress also promotes mitochondrial dysfunction, Cytochrome c release, PARP cleavage, Ca+^2 mobilization and caspase activation in SK-MEL-28 and Mia-PaCa-2 cells, positively regulating CASP3. The survival rate of the previous experiment, calculated using cell viability tests, is herein summarized: Mia-PaCa-2 67%, SK-MEL-28 44%, SK-MEL-5 42%, non-tumoral human fibroblasts 100% (rounded values). These numbers indicate that part of the cells possibly survives through a positive unfolded protein response (UPR) and part dies. […] Furthermore, autophagy could also be evoked to recover a global tissue homeostasis, and, in this case, there is the signature of immunogenic cell death (ICD). It is believed that the ICD could explain this.

For experiment [1], the system named is non-tumoral human fibroblasts. The experiment is described as above. Format: cell-based. The note with it: rounded values.
From the text: as §1

B1: Amblyomin-X: recombinant Kunitz type protein identified in a cDNA library of Amblyomma sculptum tick salivary glands (protein)
chain: MRQLAVLALVIFTGMCVESQSANSKAVCNLPKLAGDETCSNKTEIRWYYNGTACEAFIFKGCGGNDNNFDRVDDCQRLCEEQTHFHFESPKLICFKVQDYWILNDIMKKNLTGISLKSEEEDADSGEID
modifications: Amblyomin-X
notes: recombinant Kunitz type protein identified in a cDNA library of Amblyomma sculptum tick salivary glands
As for B1, the survival rate turned out to be 42% with SK-MEL-5 and 100% in experiment [1].

For the origin of these results see patent publication US12329806B2, “Compound for modulating rlr, tlr, oas and/or oncostatin m pathways, use thereof for preparing a medicine, composition, method for modulating said pathways and method of treatment” (Instituto Butantan, priority 2018, dated 2025).
